Seven molecules from patent US20180230231A1 (Memorial Sloan Kettering, published 2018) can be followed below.

Experiment [1] concerns the target phrGFP-ΔMUC16^c334 on SKOV3 cells (human). Description: FACS dot plot, surface staining, goat anti-mouse PE (FL2) against GFP (FL1); secondary antibody alone gives 0.69 in this quadrant.
Experiment [2] deals with phrGFP-ΔMUC16^c114 on SKOV3 cells (human). Description: FACS dot plot, surface staining, goat anti-mouse PE (FL2) against GFP (FL1); secondary antibody alone gives 0.55 in this quadrant.
Experiment [3] deals with human MUC16 on OVCAR3 cells (human). Description: FACS dot plot, surface staining, goat anti-mouse PE (FL2) against GFP (FL1); secondary antibody alone gives 8.06 in this quadrant.
Experiment [4] concerns the target phrGFP-ΔMUC16^c334 on SKOV3 cells (human). Put plainly: FACS dot plot, surface staining, goat anti-mouse PE (FL2) against GFP (FL1); secondary antibody alone gives 4.11 in this quadrant.
The target of experiment [5] is phrGFP-ΔMUC16^c114 on SKOV3 cells (human). Put plainly: FACS dot plot, surface staining, goat anti-mouse PE (FL2) against GFP (FL1); secondary antibody alone gives about 0.9 in this quadrant.
Experiment [6] deals with phrGFP-ΔMUC16^c334 on SKOV3 cells (human). Description: FACS dot plot, surface staining, goat anti-mouse PE (FL2) against GFP (FL1); secondary antibody alone gives 4.11 in this quadrant (FIG. 7A).
The target of experiment [7] is phrGFP-ΔMUC16^c114 on SKOV3 cells (human). Put plainly: FACS dot plot, surface staining, goat anti-mouse PE (FL2) against GFP (FL1); secondary antibody alone gives 0.55 in this quadrant (FIG. 7A).
Experiment [8] has the same target. Put plainly: FACS dot plot, surface staining, goat anti-mouse PE (FL2) against GFP (FL1); secondary antibody alone gives about 0.9 in this quadrant (FIG. 7A).
Experiment [9] addresses phrGFP-ΔMUC16^c334 on SKOV3 cells (human). Put plainly: FACS dot plot, surface staining, goat anti-mouse PE (FL2) against GFP (FL1); secondary antibody alone gives 0.69 in this quadrant (FIG. 7A).
In experiment [10] the target is human MUC16 on OVCAR3 cells (human). Put plainly: FACS dot plot, surface staining, goat anti-mouse PE (FL2) against GFP (FL1); secondary antibody alone gives 8.06 in this quadrant (FIG. 7A).
Experiment [11] shares this target. Put plainly: FACS dot plot, surface staining, goat anti-mouse IgG PE (FL2) against GFP (FL1); secondary antibody alone gives 8.06 in this quadrant (FIG. 7A).
In experiment [12] the target is phrGFP-ΔMUC16^c334 on SKOV3 cells (human). Description: FACS dot plot, surface staining, goat anti-mouse IgG PE (FL2) against GFP (FL1); secondary antibody alone gives 0.69 in this quadrant (FIG. 7A).
Experiment [13] addresses phrGFP-ΔMUC16^c114 on SKOV3 cells (human). Description: FACS dot plot, surface staining, goat anti-mouse IgG PE (FL2) against GFP (FL1); secondary antibody alone gives about 0.9 in this quadrant (FIG. 7A).
In experiment [14] the target is phrGFP-ΔMUC16^c334 on SKOV3 cells (human). Description: FACS dot plot, surface staining, goat anti-mouse IgG PE (FL2) against GFP (FL1); secondary antibody alone gives 4.11 in this quadrant (FIG. 7A).
For experiment [15], the target named is phrGFP-ΔMUC16^c114 on SKOV3 cells (human). Description: FACS dot plot, surface staining, goat anti-mouse IgG PE (FL2) against GFP (FL1); secondary antibody alone gives 0.55 in this quadrant (FIG. 7A).
Experiment [16] deals with mouse MUC16 on ID8 and BR5-FVB1 cells (mouse). Put plainly: FACS on BR5-FVB1 (mouse) cells, second antibody alone.
The target is the same in experiment [17]. Description: FACS on ID8 (mouse) cells, second antibody alone.
For experiment [18], the target named is T1, MUC16 Polypeptide 2 (human, not fully specified).
T1 construct: Synthetic peptide
T1 peptide: CTLDRSSVLVDGYSPNRNE
Description: ELISA on synthetic peptide, hybridoma sup 1:1. (ELISA stands for enzyme-linked immunosorbent assay.)

Experiment [19] addresses T2, Mouse MUC16-CD Peptide 1 (mouse, also: N-terminal Cys added for KLH conjugation of immunogen).
T2 construct: A cysteine was added at the N terminus for KLH conjugation of the immunogen
T2 peptide: TLDRKSVFVDGYSQNRDD
Put plainly: ELISA of clone supernatant on individual mouse MUC16 peptides.

Changes are numbered by the printed parent chain. Ends that are not written are not given here.

Chain of phrGFP-ΔMUC16^c114 on SKOV3 cells (human) (chain, as listed by the source mutant limits assumed): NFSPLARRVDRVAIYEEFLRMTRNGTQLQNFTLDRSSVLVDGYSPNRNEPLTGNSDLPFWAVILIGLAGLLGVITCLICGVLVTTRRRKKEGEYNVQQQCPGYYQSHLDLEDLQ
Chain of mouse MUC16 on ID8 and BR5-FVB1 cells (mouse) (chain, as listed by the source limits assumed): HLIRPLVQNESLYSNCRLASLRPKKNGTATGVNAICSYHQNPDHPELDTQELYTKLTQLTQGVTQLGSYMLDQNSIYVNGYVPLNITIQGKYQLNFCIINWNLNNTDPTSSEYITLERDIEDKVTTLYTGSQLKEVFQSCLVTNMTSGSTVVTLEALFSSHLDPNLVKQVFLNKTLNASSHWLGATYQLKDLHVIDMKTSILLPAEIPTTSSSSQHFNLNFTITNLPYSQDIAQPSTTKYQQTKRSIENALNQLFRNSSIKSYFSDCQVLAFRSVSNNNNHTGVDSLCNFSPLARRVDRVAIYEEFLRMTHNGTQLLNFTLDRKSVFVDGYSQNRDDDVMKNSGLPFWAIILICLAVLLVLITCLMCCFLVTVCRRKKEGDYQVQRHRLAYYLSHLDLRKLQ

Take OC125 (antibody): the values for the % of events in the upper left quadrant (PE-positive, GFP-negative) in experiment [1], in experiment [2] and in experiment [3] were 1.1%, 2.39% and 97%, respectively. The % of events in the upper right quadrant (PE-positive, GFP-positive) in [4] was 25.4%; in experiment [5], 1.09%.

Consider M11 (antibody), for which the % of events in the upper right quadrant (PE-positive, GFP-positive) in [6] stood at 33.5%; in experiment [8], 1.24%. Further, the % of events in the upper left quadrant (PE-positive, GFP-negative) was determined as 2.55% in experiment [7], 1.35% in experiment [9] and 95.3% in experiment [10].

Take VK8 (antibody): the % of events in the upper left quadrant (PE-positive, GFP-negative) in [11] was determined as 94.9%; in experiment [12], 0.91%; in experiment [15], 0.69%. For the same molecule, the % of events in the upper right quadrant (PE-positive, GFP-positive) in experiment [13] was 1.02%; in experiment [14], 6.59%.

Consider G anti Mouse IgG2b-PE (antibody), for which the results for the % of cells in the PE-positive gate in experiment [16] and in experiment [17] were 0.99% and 4.53%, respectively.

B1: 4H11.2.5 (antibody, V domains shown)
VH: VKLQESGGGFVKPGGSLKVSCAASGFTFSSYAMSWVRLSPEMRLEWVATISSAGGYIFYSDSVQGRFTISRDNAKNTLHLQMGSLRSGDTAMYYCARQGFGNYGDYYAMDYWGQGTTVTVSS
VL: DIELTQSPSSLAVSAGEKVTMSCKSSQSLLNSRTRKNQLAWYQQKPGQSPELLIYWASTRQSGVPDRFTGSGSGTDFTLTISSVQAEDLAVYYCQQSYNLLTFGPGTKLEVKR
notes: Mouse monoclonal, IgG2b (parent supernatant IgG2b, IgM); also called 4H11 MAb
Take B1: in experiment [18], the binding result is “binds”.

B2: 4A5.37 (antibody, IgG1, V domains shown)
VH: B1 VH with Q4E, V19I, S29R, S30N
VL: B1 VL with P46T, V111I
notes: Mouse monoclonal, IgG1
Turning to B2, in experiment [18], the binding result is on record as “binds”.

B3: 12B10-3G10 (antibody, V domains shown)
VH: EVKLEESGGGLVQPKGSLKLSCAASGFTFNTYAVHWVRQAPGKGMEWVARIRSKSGNYATYYADSVKDRFTISRNDSQSMLYLQMNNLKTEDTAIYYCVRAGNNGAFPYWGQGTTVTVSS
VL: DIELTQSPSSLSASLGGRVTITCKASQDIKKYIAWYQHKPGKTPRLLIHFTSTLQTGIPSRFSGRGSGRDYSFSISNLESEDIATYYCLQYDSLYTFGGGTKLEIKR
notes: Mouse mAb against mouse MUC16, IgG 2b; also called mouse 12B10 mAb; 12B10-3F7
As for B3, the binding result in [19] was “binds”.
